Assay results from patent US7655619B2, “Insulin-associated peptides with effects on cerebral health” (Thomas Jefferson University, priority 2002, dated 2010).

Key:
rats [1] = experiment: one-trial passive avoidance procedure (associative learning), intranasal pretreatment; format: in vivo, Male Sprague Dawley rats
Protocol: Passive avoidance was performed in an apparatus (MED Associates Inc., St. Albans, Vt.) consisting of one dark chamber and one light chamber that can be divided by a guillotine door. The training procedure was executed as previously described (N. Venable et al. Psychopharmacology 100, 215 (1990)). Rats were administered a 1.0 mA shock for 3 sec, mice a 0.5 mA shock for 5 sec. Retention tests were performed either at 1, 3 or 7 days post-pairing. Maximum latency was 600 sec for rats, 300 sec for mice.
A control group received vehicle (5% cyclodextrin) alone.

rats [2] = experiment: Morris Water Maze (spatial learning), intranasal administration; format: in vivo, Male Sprague Dawley rats
Protocol: Spatial learning was assessed using the Morris Water Maze (Morris et al. Nature, 1982, 297: 681). […] Animals were anaesthetized with isofluorane then administered peptide intra-nasally 20 min before testing. Rats were given four training trials. 48 h after training, a retention test was performed: rats were allowed to find the hidden platform for one trial. […] Latency to find the platform was considered a measure of retention of spatial learning.

[3] = blood glucose levels by glucometer after intranasal administration; settings: doses 3-30 μg, twenty minutes after administration, vs vehicle
Protocol: Rats (N-5/group) were first anesthetized with isoflorane anesthesia and then administered vehicle (5% (2,6-DI—O-methyl)β-cyclodextrin) or insulin (3-30 μg, 28 USP units/mg) intra-nasally. Twenty minutes later, rats were sacrificed and blood glucose levels rapidly determined with a glucometer (Elite XL, Bayer).

rats [4] = experiment: locomotor activity in open field testing chamber; settings: 3-30 μg intranasal, 30 minutes in open field chamber, data not shown
Protocol: Following pretreatment, the rats were placed for 30 minutes in an open field testing chamber (17″×17″×12″ H) where movement was detected every 50 ms by infrared photo beam emitter and detector strips at 1″ and 10″ from the bottom of the chamber. The activity chambers were lined to a PC computer and data was compiled via Activity Monitor Software (4.0, MED Associates, St. Albans, Vt.).

rats [5] = experiment: one-trial passive avoidance with insulin antagonist α2HSG alone or in combination; format: in vivo; settings: for latency time in passive avoidance: compared to vehicle alone
Protocol: After a 20 minute pretreatment time, rats were placed in the light side of a two-chambered light/dark Plexiglas passive avoidance apparatus (MED Associates). Once the rat entered the dark chamber, a guillotine door was closed and a 1.0 mA shock (3 sec) was administered. The door was then raised and the rat was allowed to re-enter the light side. Latency (max 600 sec) to enter the dark chamber was taken as a measurement of associative learning.

insulin: insulin from bovine pancreas (C254H377N65O75S6), 28 USP units/mg, from Sigma
retention of associative learning (24 hours) (rats [1]; FIG. 9, 24 hours): enhances retention of associative learning | latency to enter the dark chamber (associative learning) (rats [1]; intranasal 10 μg dose, pretreatment 20 min, compared to vehicle): significantly (P<0.05) enhanced latency | latency to find hidden platform, retention test (rats [2]; intranasal 3 μg, 48 hours following training, compared to vehicle): significantly deceased latency | latency to find submerged platform, acquisition during training (rats [2]; intranasal 3-30 μg, four training trials, between groups incl. vehicle): No significant differences occurred in acquisition between groups during training | swimming speed (rats [2]; intranasal, compared to vehicle): do not affect swimming speed compared to vehicle | blood glucose levels [3]: no significant differences between treatment groups | distance traveled (locomotor activity) (rats [4]): did not differ between treatments | latency time in passive avoidance (rats [5]; insulin 10 μg alone intranasal): enhanced latency time

B1: α2HSG: endogenous inhibitor of insulin receptor tyrosine kinase activity; insulin antagonist (protein, UniProt P02765 19-300; P02765 341-367, looked up)
Alpha-2-HS-glycoprotein chain … 1: APHGPGLIYRQPNCDDPETEEAALVAIDYINQNLPWGYKHTLNQIDEVKVWPQQPSGELFEIEIDTLETTCHVLDPTPVARCSVRQLKEHAVEGDCDFQLLKLDGKFSVVYAKCDSSPDSAEDVRKVCQDCPLLAPLNDTRVVHAAKAALAAFNAQNNGSNFQLEEISRAQLVPLPPSTYVEFTVSGTDCVAKEATEAAKCNLLAEKQYGFCKATLSEKLGGAEVAVTCMVFQTQPVSSQPQPEGANEAVPTPVVDPDAPPSPPLGAPGLPPAGSPPDSHVL
Alpha-2-HS-glycoprotein chain … 2: TVVQPSVGAAAGPVVPPCPGRIRHFKV
latency time in passive avoidance (rats [5]; α2HSG 30 μg alone): no difference between antagonist alone and vehicle alone | effect on enhancement of latency times by A-chain (rats [5]; α2HSG 30 μg in combination with A-chain 3 μg, intranasal): blocked enhancement of latency times by A-chain | effect on enhancement of latency times by insulin (rats [5]; α2HSG 3-30 μg in combination with insulin 10 μg, intranasal): blocked enhancement of latency times by insulin
